Experiment [1] deals with human mu opioid receptor (human) (UniProt P35372).
For experiment [2] the target is unchanged. The experiment in a line: radioligand binding; displacement of [3H]DAMGO from commercial membranes of CHO cells transfected with the human recombinant mu opioid receptor; Ki, mean ± SEM, n ≥ 3.

For orientation: Ki means a dissociation constant, usually derived from enzyme kinetics or from competition with a known ligand.

Non-standard residues stand in square brackets, D forms with d. No end group written: not given here. Dmt = Cc1cc(O)cc(C)c1C[C@H](N)C(=O)O

human mu opioid receptor (human), sequence (P35372 whole entry): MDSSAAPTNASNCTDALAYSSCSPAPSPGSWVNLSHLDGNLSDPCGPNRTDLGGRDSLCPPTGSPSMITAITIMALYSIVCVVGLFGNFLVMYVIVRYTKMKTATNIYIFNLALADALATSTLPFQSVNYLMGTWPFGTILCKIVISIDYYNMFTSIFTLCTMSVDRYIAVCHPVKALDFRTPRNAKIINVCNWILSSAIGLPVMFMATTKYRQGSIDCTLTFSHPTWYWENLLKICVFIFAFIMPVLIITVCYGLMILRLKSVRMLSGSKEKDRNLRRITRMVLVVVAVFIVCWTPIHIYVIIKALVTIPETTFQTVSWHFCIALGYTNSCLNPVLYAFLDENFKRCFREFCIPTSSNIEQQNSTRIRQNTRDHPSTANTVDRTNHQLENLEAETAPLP

Turning to [Dmt]PFF-NH2 [EM-2 analog 1 (Dmt-Pro-Phe-Phe-NH2)], the calcium mobilization, CHO cells with human mu receptor and Gαqi5: α (Emax ratio to the standard agonist) in experiment [1] stood at 0.85. Also, the Ki in experiment [2] is 0.54 nM.
For the molecule YPFF-NH2 [endomorphin-2 (Tyr-Pro-Phe-Phe-NH2)], the calcium mobilization, CHO cells with human mu receptor and Gαqi5: α (Emax ratio to the standard agonist) in experiment [1] is 1. Also, in experiment [2], the inhibitory constant (Ki) stood at 1.97 nM.

The values above are taken from paper PMC9998502, “Functional selectivity of EM-2 analogs at the mu-opioid receptor” (Frontiers in Pharmacology, 2023).
